System: heptanedioyl-ACP
Assay: not given
Type: cell-based, Escherichia coli
Conditions: top 150 hits screened in vivo

Row | Molecule | activity toward heptanedioyl-ACP in vivo
1 | SEQ ID NO: 188: Vibrio mimicus thioesterase (protein, listed as Vibrio mimicus) MIRLLSLVLFFCLSAASQASEKLLVLGDSLSAGYQMPIEKSWPSLLPDALLEHGQDVTVINGSISGDTTGNGLARLPQLLDQHTPDLVLIELGANDGLRGFPPKVITSNLSKMISLIKDSGANVVMMQIRVPPNYGKRYSDMFYDIYPKLAEHQQVQLMPFFLEHVITKPEWMMDDGLHPKPEAQPWIAEFVAQELVKHL | displayed considerable activity toward heptanedioyl-ACP

System: not listed separately
Assay: In vivo aminotransferase activity screening, 7-aminoheptanoate by LC-MS
Type: cell-based, Escherichia coli
Conditions: in vivo conversion of 7-oxoheptanoate to 7-aminoheptanoate, 120 aminotransferases screened
Protocol: A 165-member aminotransferase library from Twist on IPTG-inducible T7- pUC expression vectors was co-transformed into T7 Express lysY/Iq with a constitutive expression pJ23150-derived plasmid bearing the phosphopantetheinyl transferase sfp from Bacillus subtilis, CAR_Srot from Invista and BioC from Serratia marcescens (UniprotKB Accession No. P36571 (SEQ ID NO: 165)). The resulting strains were incubated in 0.5 ml of rich media (terrific broth or LB containing 8% glycerol) supplemented with 0.4 mM IPTG and received 1 g/L monomethyl heptanedioate, 1 g/L heptanedioate, or no organic acid addition, depending on the experiment. Following incubation overnight at 37° C. in a shaking incubator, cells were pelleted and the supernatants were analyzed using LC-MS for 7-aminoheptanoate or monomethyl 7-aminoheptanoate. A Vibrio fluvialis aminotransferase (UniProtKB Accession No. F2XBU9 (SEQ ID NO: 128)) was used as a positive control.

Row | Molecule | 7-aminoheptanoate yield compared to the positive control (F2XBU9)
2 | SEQ ID NO: 176: Firmicutes bacterium CAG:24 aminotransferase (protein, Firmicutes bacterium CAG:24, Firmicutes bacterium CAG:24 aminotransferase) MGELMQQYIDEAEQDLLHTYNRYQVVLDRGDGVSLYDIEGKRYLDFVAGIAVFALGYHNAEYNDALKAQIDKVIHTSNYYYNVPAVEAARHLKKVSRMDRVFFTNSGAEAIEGAIKAARKYAYLKDGTTDHEIIAMNHSFHGRTMGALSVTGNPHYREAFEPGIGNIRFADLNDFDSVLACVNDKTCAILLETVQGEGGIYPVQEDFLKKVRALCDEKDILLILDEIQCGMGRTGYWYAWQKYGVKPDIMTTAKALGCGVPVGAFLMTEKVGQHSLTAGDHGTTYGGNPLACAAVAKVLDLFEENNILEHVREVSAYLEEKLDSLAAKYDFITDRRGMGLMQGLVFDRPVAPVINAALENGLILINAGTNIIRFVPPLVITDADVDEMIEILDSCLKTFQEQNA | higher 7-aminoheptanoate yields
3 | SEQ ID NO: 177: Pseudooceanicola batsensis aminotransferase (protein, listed as Pseudooceanicola batsensis, Pseudooceanicola batsensis (strain ATCC BAA-863 / DSM 15984 / KCTC 12145 / HTCC2597), Pseudooceanicola batsensis aminotransferase) MKDDNFLKEHNARALWHPMGAPGDSMANPPVIISSASGSRIRDIDGHETVDGVGGLWCANLGYSNDAVKEAIAKQLHELPYYSAFAGCTNPSAIEASVAVQEFFAEDGIGRVFFTSGGSDSVDTCLRLARQYHQVKGAPTRTKFLSLKKGYHGTHFGGASVNGNNRFRIGYEPLLPGCFHLTAPHAYRNPYDEADPAALARKIAAEMVDEIEFQGPETIAAFIMEPILGAGGVIVPDPTFMGLMREICTRYGILMIADEVICGFGRTGDWTGSRHWGVRPDMMSVAKGITSAYFPVGAALISEEVAEVFEKDTSGAAAIWHGYTYSAHPVGAAAVTACLSETLRLDTRTNAAARGTQLYQGLLGLKEKYDIIGDVRGGHGLMTAIEFVTDRAKKTPMDAATVKTIHSRVYEAGAMVRPAPPNLLMSPPLIITEAEVRTIIEALDTAIGSV | higher 7-aminoheptanoate yields
4 | SEQ ID NO: 178: Defluviimonas sp. 20V17 aminotransferase (protein, Defluviimonas sp. 20V17, Defluviimonas sp; 20V17 aminotransferase) MNELSNSVAHADITTILHPYTDARMHEQKGPLVIEKGDGVHVIDQSGKRYIEAMSGLWSVAVGFSQTRLRDAAAAQMEKLPYYHTFASKSHEPSVRLAEKLVEMTPENLTRVFYTSSGSEANDTVIKLVWYMNNALGRPQKKKFLARNKAYHGITIASGSLTGLPGNHRDFDLPAIPVVHLTCPHLYRFGQEGETEAQFCARLLKEAEDTILAEGPETIAAFIGEPVMGAGGVMVPPEGYWQGIEALCRKYDILLVSDEVINGFGRTGARWGCEKMGFTPDILVTSKQLTSSYMPLAAIVFSEDIYNVIADNTHKLGGFGHGFTASGHPVACAVGLENLAIIEEQGLMENAAKMGERLQAGLAKLADHPLVGEVRGTGLIAAVELVADKATKRPFDPVGKVGGKVFEYGHEEGVIFRNLGDSIAVCPPLIVTEHDVDEIVRLMGIAIDRAADWARAEGLVA | higher 7-aminoheptanoate yields
5 | SEQ ID NO: 180: Ramlibacter tataouinensis aminotransferase (protein, listed as Ramlibacter tataouinensis, Ramlibacter tataouinensis (strain ATCC BAA-407 / DSM 14655 / LMG 21543 / TTB310), Ramlibacter tataouinensis aminotransferase) MAYNDFDTGNHWLPFTPNRHFKKEPRVFVAADGMHFTTHDGRQVVDGISSLWCVGAGHNRKPINEAIKKQLDTLDYATAFNAANDQAFLAAQKIAAMAPGDLNKVLFCNSGSEAADTSMKVALAYHRARGEGHRNIFIGRERGYHGVGFGGMSVGGIPANRKVYGTALLPRVDHMRFIHDPANAYIHNQEPVSQEDYLLELEQRILPLHSPENVAAIIVEPVAGSAGWYLPPKGYLKRLREICDKHGILLIFDEVITGFGRMGTSFGADFYGVVPDMLNFAKCVTNGVIPLGGVICRDKLYDTMMKTDAPEHVIEFFHGYTYSGHPVSCAAAIATLDLYQKEGLFPRAGEMGKVLGDAFHSTFKGLPNVVGIRSLGLAAAVELAPIAGLPGKRAYDIYLDCFRKGALVRPAGDVVVIAPPYVVEKSHIDQLVNTLADSIRQHA | higher 7-aminoheptanoate yields
6 | SEQ ID NO: 175: Tepidicaulis marinus aminotransferase (protein, listed as Tepidicaulis marinus) MSQTAQISNQTRRWQEMDARHHVHPFSDQAALAKKGARVITHAEGVYLYDSEGHKIIDGMAGLWCVNVGYGRSELAEAGYKALKELPYYNTFFQTTNPYTAELGERLAEVTPDGLDRFFFANSGSEANDSMVKIIRYYWSLQGKPEKKVFISRKQAYHGVTMTAASLSGISAMHPQAGLPLPNHAHIDFPYWYGMGGDMDPNEFGVHIAMKLEEKILEIGAENVAAFVAEPVQGAGGLIIPPDSYWPVIQEICHKYDILLHADEVICGFGRTGNWFGSHTYGIVPDTMAMAKGMTSGYQPLSAVALGPRVGDALHNSGEEWSHGFTYSGHPVASAVALANLDVLQKDKLVEKAGGETGEHFLKHLHALADHPIVGETRGVGLLGAIELVKDKKTRERFEGDTGGLCRDHCFENDLIMRAIGNTMVLSPPLSITKAELDELFTLARKALDATAKDLGAM | higher 7-aminoheptanoate yields
7 | SEQ ID NO: 117: Thermomicrobium roseum aminotransferase (protein, Thermomicrobium roseum (strain ATCC 27502 / DSM 5159 / P-2), Thermomicrobium roseum aminotransferase) MTEVAAVHPEPRTAPDFEQEALKHVWIHSAEWIRLAEERGFRVFERAYGSTLVDVYGREFIDGLSGLWVVNAGHGRKEIAEAMAEQASKLAYVSSANHTTVPTVRLAHELALRLPGDLNRVFFCSGGSEAVESAIKIAKQVQAMRGFPKRYKIIARRGSYHGMTYGAMSLTQSRNEKFFGPFMYGVYYVPSPNRYRNDFGLEGEEGDLMCANYVEQEILYQDPETVAAVIGEPISTSNGVHVPSPKYWQRLREICDKYGVLLIMDEVINGFGRTGKLFAAEHFGVVPDLMTMAKGITSGYAPMGAVAVRDSVFQIFQEQKEVPLGHLLTFGGHAVAAAAALKNLEIFEREGLVQQSAEKGAYLLERLKELLRHPTVGDVRGLGLMCGIELVKSKATKEKWPRNSAFIKALERRMNEKGLLTRVWEIVHVAPPLVVTYEELDRIVTIIDEALTETENEFASEIAE | higher 7-aminoheptanoate yields
8 | SEQ ID NO: 181: Bradyrhizobium sp. DOA9 aminotransferase (protein, Bradyrhizobium sp. DOA9, Bradyrhizobium sp; DOA9 aminotransferase) MVAKQLSNSLAHADISATLHPYTNARAHERQGPVIIDRGEGIYVYDDAGKEYIEGLAGLWSVAIGFDEPRIVEVAAAQMAKLPYYHTFSHKSHEPSIRLAEKLVGMTPEPLSRVFFTSSGSEANDTMIKMVWYMNNALGRPKKKKFLARHRAYHGVTVASGSLTGLPNNHKDFDLPVIPVRHLTCPHFYRFAQTEETEAEFSARLVSEAEATILEEGPDTIAAFVGEPLMAAGGVMPPPKGYWQGIEALCRKYDILLVADEVICGLGRLGTRFGCEHYHFTPDIMIVSKQLTSSYMPLAAVIFSETIYNAIADNTAKIGTFGHGFTASGHPVATAVALENLKIIEERDLVGNAARMGRILQARLGELAAHPLVGEVRGVGLIAGIELVSEKHTRRPFASAGEVGAAAFAAAQRHGLIVRAIGDTIALCPPLIINEDQVHELVARLGDALDDTAQWRSAENLN | higher 7-aminoheptanoate yields
9 | SEQ ID NO: 179: Sphingobacterium spiritivorum ATCC 33861 aminotransferase (protein, Sphingobacterium spiritivorum ATCC 33861, Sphingobacterium spiritivorum ATCC 33861 aminotransferase) MIKEATVHERLAKHILADGLPLVIDLEKSHDSYIVDIEGNEYLDMFSMFASSPIGYNHPHIVKNSDLLKKVAINKLALSDIYPREFADFVDTFERVAIPAELSYCFFIDGGALAVENALKAAFDWKTRLNISRGIQQEASEVIHFKQAFHGRTGYTLSLTNTKDPRKYMYFPKFDWPRITNPKLHFPLTEESVTETIKAEQQAIQEIEAAIAKNPDAIACLILEPIQAEGGDNHFRTEFFQELRRICDDHDILLILDEVQTGLALTGKMWAYEHYGIIPDLISFGKKSQVCGVLAHREKFDRVEKHVFKESSRINSTFGGNLVDMMRFKLILEVIEQENLVQQAESLGEYLLEKLEQLAKRHSQLSNVRGKGLLASFDFQTEQQRDEFVKRAMNNKLLILGCGDKSIRFRPHLTVTVEQLDKALALVEKSL | higher 7-aminoheptanoate yields
10 | SEQ ID NO: 123: Pseudomonas sp. 10-1B aminotransferase (protein, Pseudomonas sp. 10-1B, Pseudomonas sp; 10-1B aminotransferase) MENSMSLNDLQQRDIDNLLHPYTNHHLHQSQGPHVITGGDGIYVTDDQGNRYIEGLAGLFCASLGFSEPRLAQAAFEQLQRMPFYHAFAHKSTQPGIELAERLLAMAPPSMSKVFFANSGSEANDTAVKLIWYYHNAIGQPQKKKIIARQRGYHGVTVASASLTGLPNNHRDFDLPIANILHTDCPHYYRYGLPGESEAAFVDRCVANLEALILHEGADTIAAFFAEPVMVSGGVILPPQGYFAKVQALLRKYDILFVVDEVICGFARTGNMFGWQTYDLQPDMISLAKQLSAAYMPISALLVNDKIDQALKAQSEKIGSFSHGFTYGGHPVAAAVALEAQKIYQERDIVGHVRRVAPRFQAGIRRLGEHPLIGEARGVGLVAGLEFVRNKQTRETFAPEQSAAAYAGRRAQAHGVITRGLGDTLSLCPALIIDEEQIDDLIVRIERALDDTLAWAREQGLVDA | higher 7-aminoheptanoate yields
